This passage reports Relative FRET increase (RFP/YFP ratio of the intramolecular sensor) after 10 µM paclitaxel for 1 h, HEK293T cells results from PMC7138840.

Positions count from the first letter of the chain named. Numbers in names are those of the source.

The chains are these.
B1: ROPY (RFP-OP18-YFP) FRET sensor: stathmin/oncoprotein18 (OP18) with sYFP2 donor and mScarlet-I R125I acceptor (natural protein)
chain: MASSDIQVKELEKRASGQAFELILSPRSKESVPDFPLSPPKKKDLSLEEIQKKLEAAEERRKSHEAEVLKQLAEKREHEKEVLQKAIEENNNFSKMAEEKLTHKMEANKENREAQMAAKLERLREKDKHVEEVRKNKESKDPADETEAD
B2: ROPY-4A, phospho-blocking variant of ROPY with four serines mutated into alanines (natural protein)
chain: B1 chain with S16A, S25A, S38A, S63A
B3: ROPY-4E, phospho-mimetic variant of ROPY with four serines mutated into glutamic acids (natural protein)
chain: B1 chain with S16E, S25E, S38E, S63E

For the test, the target named is free tubulin heterodimers (human (endogenous in HEK293T and HeLa)) (UniProt P68363).
Sequence of UniProt P68363 (P68363 whole entry, chain 1 of 2): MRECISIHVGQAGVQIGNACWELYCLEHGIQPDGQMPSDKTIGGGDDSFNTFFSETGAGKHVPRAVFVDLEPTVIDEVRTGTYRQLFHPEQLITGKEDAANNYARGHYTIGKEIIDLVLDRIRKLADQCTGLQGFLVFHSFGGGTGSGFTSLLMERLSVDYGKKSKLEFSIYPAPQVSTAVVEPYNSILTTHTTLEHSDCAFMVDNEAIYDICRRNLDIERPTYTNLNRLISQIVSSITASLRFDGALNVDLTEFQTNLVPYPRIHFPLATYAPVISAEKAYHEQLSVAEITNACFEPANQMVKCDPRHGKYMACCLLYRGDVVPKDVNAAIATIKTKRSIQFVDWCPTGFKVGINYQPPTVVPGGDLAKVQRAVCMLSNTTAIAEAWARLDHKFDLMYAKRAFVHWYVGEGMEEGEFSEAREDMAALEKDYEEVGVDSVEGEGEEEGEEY
Sequence of UniProt P68363 (P07437 whole entry, chain 2 of 2, further chain): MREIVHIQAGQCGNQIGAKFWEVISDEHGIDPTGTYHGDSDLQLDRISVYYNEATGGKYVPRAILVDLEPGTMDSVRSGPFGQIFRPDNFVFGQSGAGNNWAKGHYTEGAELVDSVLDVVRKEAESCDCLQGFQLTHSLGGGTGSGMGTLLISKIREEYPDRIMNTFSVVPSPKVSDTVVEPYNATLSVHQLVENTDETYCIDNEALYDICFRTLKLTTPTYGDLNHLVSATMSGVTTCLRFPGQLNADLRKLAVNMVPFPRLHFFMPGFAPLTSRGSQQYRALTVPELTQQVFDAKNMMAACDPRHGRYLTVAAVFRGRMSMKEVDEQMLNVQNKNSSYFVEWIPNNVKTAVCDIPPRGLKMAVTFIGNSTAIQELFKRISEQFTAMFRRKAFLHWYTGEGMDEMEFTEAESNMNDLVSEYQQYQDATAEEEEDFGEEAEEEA
B1: the Relative FRET increase (RFP/YFP ratio of the intramolecular sensor) after 10 µM paclitaxel for 1 h, HEK293T cells was 1.11. To B2 belongs 1.15; to B3, 1.01.
